In test [1] the target is T1, wild-type His6-tagged H-Ras (1-166) pre-loaded with GDP, P01112. Nature of the test: fluorescence polarization, fluorescein-labelled CHD (15 nM), His6-H-Ras-GDP titrated. In general terms: Polarisation of emitted light reports the rotation of a fluorescent probe.
Test [2] deals with T1, wild-type His6-tagged H-Ras (1-166) …. Nature of the test: direct fluorescence polarization; fluorescein-labelled CHD titrated with GDP-loaded WT H-Ras.
Test [3] addresses KRAS (Homo sapiens), P01116. Nature of the test: photoaffinity crosslinking in H358 cells, TMT MS proteomics; vs control probe CP-266.
Test [4] has as its target KRAS (Homo sapiens), P01116. Briefly: photoaffinity crosslinking in H358 cells, TMT MS proteomics.
For test [5], the target named is G12C mutant His6-tagged H-Ras (1-166) pre-loaded with GDP, P01112. Briefly: direct fluorescence polarization (FP); fluorescein-labelled CHD titrated with GDP-loaded His6-H-Ras G12C.
Test [6] has as its target T2, G12V mutant His6-tagged H-Ras (1-166) pre-loaded with GDP, P01112. Nature of the test: direct fluorescence polarization (FP); fluorescein-labelled CHD titrated with GDP-loaded His6-H-Ras G12V.
Test [7] concerns the target T1, wild-type His6-tagged H-Ras (1-166) …. Nature of the test: direct fluorescence polarization (FP); fluorescein-labelled CHD titrated with GDP-loaded His6-H-Ras.
The target of test [8] is G12D mutant His6-tagged H-Ras (1-166) pre-loaded with GDP, P01112. Briefly: direct fluorescence polarization (FP); fluorescein-labelled CHD titrated with GDP-loaded His6-H-Ras G12D.
Test [9] has as its target K-Ras (endogenous, H358 cells) (human), P01116. Briefly: cell-based or functional assay.
For test [10], the target named is T3, fluorescently-labeled wild-type H-Ras-GDP (MST), P01112. Briefly: microscale thermophoresis, dye-labelled H-Ras-GDP (5-10 nM), CHD titrated.
Test [11] has as its target T2, G12V mutant His6-tagged H-Ras (1-166) …. Nature of the test: microscale thermophoresis (column MST); AFDye 647-labelled G12V H-Ras-GDP with serial dilutions of the unlabelled CHD.
Test [12] addresses T3, fluorescently-labeled wild-type …. Nature of the test: microscale thermophoresis; AFDye 647-labelled wild-type H-Ras-GDP with serial dilutions of the CHD.

Positions of bridges follow the written chain, without caps; N, C: chain ends. Non-standard residues stand in square brackets, D forms with d. Chains are numbered I, II in the order given. No end group written: not given here. *: point of attachment. dibenzylether crosslinker = scaffold alkylating both cysteine thiols (drawn in Scheme 1 and; FITC = O=C1OC2(c3ccc(O)cc3Oc3cc(O)ccc32)c2ccc(NC(=S)*)cc21; hArg = N=C(N)NCCCC[C@H](N)C(=O)O; βAla = NCCC(=O)O

B1: FITC-CHD^Sos-1 (designed binder)
chain 1: Ac-FIGRLCTEILKLREGN-NH2
chain 2: {FITC}-[βAla]LAWRLRELERELARLC
modifications: linker I:6-II:17 via dibenzylether crosslinker; not fully specified (C-terminus)
B1: the Kd – broadly, the free concentration of one partner at which half of the binding sites on the other are occupied at equilibrium, for simple one-to-one binding – in test [1] came out at 32 µM; in test [2], 32.2 µM.

B2: DZ2-CHD^Sos-5 (designed binder)
chain 1: WIGRLCTEIKRLRNGN
chain 2: LAWRLRELERELARLC
modifications: not checked
For the molecule B2, in test [3], the Fold was 6.63 fold and the log2(fold) was 2.73. The Average Abundance in [4] amounted to 825.

B3: FITC-CHD^Sos-5 (designed binder)
chain 1: Ac-WIGRLCTEI[hArg]RLRNGN-NH2
chain 2: {FITC}-[βAla]LAWRLRELERELARLC-NH2
modifications: linker I:6-II:17 via dibenzylether crosslinker
Regarding B3, the Kd in [1] was 2 µM; in [5] it was 16.1 µM; in test [6], 13.4 µM; in test [7], 1.9 µM; in test [8], 17.9 µM.

B4: CHD^Sos-5 (designed binder)
chain 1: WIGRLCTEI[hArg]RLRNGN
chain 2: Ac-LAWRLRELERELARLC-NH2
modifications: linker I:6-II:16 via dibenzylether crosslinker; not fully specified (N-terminus, C-terminus)
For the molecule B4, in [9], the ERK activation levels (ERK phosphorylation, Western blot, H358 cells) is below 1 µM. For the same molecule, the dissociation constant (Kd) came out at 0.3 µM in test [10] and 2.7 µM in test [11]. Besides, the EC50 (read off the curve) – broadly, the concentration needed to bring the measured effect to its halfway point – in test [12] worked out at 0.2 µM.
